Assays:
[1] = target: FcγRIIIA (UniProt P08637); assay: assay not described; affinity relative to wild type Medi2
[2] = target: FcγRIIIA (UniProt P08637); assay: assay not described; affinity relative to wild type Medi3

Sequence of UniProt P08637 (P08637 17-208 limits assumed): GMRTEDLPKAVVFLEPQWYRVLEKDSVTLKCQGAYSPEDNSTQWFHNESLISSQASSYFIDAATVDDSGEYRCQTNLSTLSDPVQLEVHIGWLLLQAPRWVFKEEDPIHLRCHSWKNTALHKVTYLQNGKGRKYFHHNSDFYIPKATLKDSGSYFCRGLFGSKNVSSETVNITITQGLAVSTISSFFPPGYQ

| fold higher binding affinity than Medi2 [1] [fold] | fold higher binding affinity than Medi3 [2] [fold] | Substance |
| --- | --- | --- |
| 78 |  | Medi2-V3 ("V3" Fc variant of anti-Integrin αVβ3 antibody Medi2, aspartate 239, leucine 330, glutamate 332) |
|  | 8.8 | Medi3-V1 (Fc variant of anti-EphA2 antibody Medi3, glutamate at residue 332) |

— patent publication US20080071063A1
